Data reported in the supplement of paper PMC9732359.
± gives the uncertainty stated by the source.

Experiment: protein stability index of a GFP-peptide fusion (yeast GPS) (PSI 1-4); higher = more stable; sorted into four equal gates, so the index is relative within each strain
How it was run: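 The protein stability index combines read frequencies across sorting gates, each weighted by its gate number and then summed. To obtain those frequencies, a pooled yeast library of GFP fusions to tiled 17-residue yeast protein peptides, on a plasmid also expressing Cherry, was grown to mid-log phase in leucine-free medium. The cells were sorted into four equal gates by GFP/Cherry ratio before plasmid amplification by PCR and Illumina sequencing.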

Sequence | protein stability index (doa10∆) | protein stability index (pdr5∆) | protein stability index (san1∆) | protein stability index (ubr1∆)
VIYRNSLYKVSFLEKPK [YMR129W/POM152] | 2.49 ± 0.065 | 2.61 ± 0.081 | 2.42 ± 0.073 | 2.43 ± 0.12
TKCSTVVKASELDQFWQ [SRP14] | 2.17 ± 0.041 | 2.14 ± 0.047 | 2.04 ± 0.082 | 1.72 ± 0.03
TPDASKPSFSFGVPNSS [YLR335W/NUP2] | 2.92 ± 0.088 | 3.14 ± 0.086 | 3.07 ± 0.068 | 2.94 ± 0.072
EAAKLLVDSLATFTSIE [RPN7] | 3.24 ± 0.18 | 3.1 ± 0.098 | 3.24 ± 0.096 | 2.68 ± 0.096
NVNLDDYPDDSGWTPFH [NAS6] | 3 ± 0.091 | 2.91 ± 0.069 | 2.92 ± 0.061 | 2.96 ± 0.066
GRSNEIVKTTTKQRLDA [PRP8] | 3.06 ± 0.073 | 2.78 ± 0.11 | 2.63 ± 0.13 | 3.2 ± 0.052
IQPKITELKKKLDDLEN [SMC1] | 3.11 ± 0.13 | 2.79 ± 0.13 | 3.11 ± 0.14 | 2.71 ± 0.14
KKIAQRERRAALTDFER [RPL14A] | 3.09 ± 0.3 | 3.46 ± 0.19 |  | 
EYLKGSESQLNSTLKKV [YCS4] | 2.85 ± 0.17 |  | 2.5 ± 0.2 | 
WKRQISYFLKLLGNCYS [SRB8] | 1.63 ± 0.038 | 1.82 ± 0.042 | 1.69 ± 0.071 | 1.37 ± 0.037
KDNECSSFEENNDLESV [RRI2] | 3.13 ± 0.16 | 3.12 ± 0.16 | 3.1 ± 0.17 | 3.34 ± 0.17
TQPKATSTGTTIVGVKF [PUP1] | 3.48 ± 0.12 | 3.52 ± 0.1 | 3.28 ± 0.1 | 3.03 ± 0.091
PSHEKLKESYSQKHNGR [CDC53] | 3.23 ± 0.13 | 3.13 ± 0.071 | 2.94 ± 0.047 | 3.04 ± 0.08
NFETEWNLQTLAADDAF [RPB11] | 2.68 ± 0.16 | 2.83 ± 0.13 |  | 2.54 ± 0.13
KVFDTLTRFSHDADLEV [RPN1] | 2.44 ± 0.073 | 2.31 ± 0.054 | 2.44 ± 0.063 | 2.67 ± 0.047
YDLMAPNGHISTKKIQV [YMR129W/POM152] | 2.15 ± 0.08 | 2.06 ± 0.07 | 1.5 ± 0.085 | 1.94 ± 0.05
FREAIVATEPLLDILVK [PRP8] | 1.86 ± 0.047 | 2.16 ± 0.043 | 1.96 ± 0.1 | 1.54 ± 0.031
ISFAAFILADAGLEITS [RPP1B] | 1.98 ± 0.063 | 1.8 ± 0.055 | 2.03 ± 0.23 | 1.9 ± 0.076
DSFKYEPLAPGNDNLIK [YLR335W/NUP2] | 2.61 ± 0.061 | 2.75 ± 0.045 | 2.63 ± 0.045 | 2.85 ± 0.044
PLIWQLLQSSIINKLIH [POP3] | 2 ± 0.059 | 2.38 ± 0.062 | 2.01 ± 0.096 | 1.84 ± 0.028
TLAEVKAAGLTAAYART [RPL13A] | 1.38 ± 0.11 | 1.89 ± 0.097 | 1.5 ± 0.12 | 1.54 ± 0.061
TLDRNTAAETFKLFNKY [RPL8A] | 3.03 ± 0.088 | 3.19 ± 0.068 | 3.08 ± 0.082 | 2.94 ± 0.066
VIDIGASGCNVTPIIDG [ARP7] | 2.67 ± 0.088 | 3.03 ± 0.084 | 2.93 ± 0.071 | 3.02 ± 0.05
TSQNPQRDAEISQPKSM [BRR2] | 3.27 ± 0.11 | 3.04 ± 0.27 | 3.11 ± 0.13 | 2.88 ± 0.11
WYKVAKNVGNKSPEQCI [SWI3] | 2.98 ± 0.097 | 3.27 ± 0.07 | 3.07 ± 0.093 | 3.08 ± 0.05

Sequence | protein stability index (doa10∆) | protein stability index (pdr5∆) | protein stability index (san1∆) | protein stability index (ubr1∆)
IPVGLMAQENSMERKVQ [MCD1] |  | 3.38 ± 0.29 |  | 3.19 ± 0.1
NKLGNKRLTEDERIEKE [CDC53] | 2.38 ± 0.15 | 3.13 ± 0.095 | 2.31 ± 0.059 | 2.42 ± 0.11
FGNKPAGSTGFSFGQNN [YGR119C/NUP57] | 1.75 ± 0.089 | 1.77 ± 0.085 | 1.46 ± 0.15 | 1.29 ± 0.28
NSSVGNKTDAQAPTTGF [YJL041W/NSP1] | 3 ± 0.072 | 3.15 ± 0.056 | 3.19 ± 0.058 | 2.96 ± 0.094
GTNKDMILKLVCQVTKF [ECM29] | 1.55 ± 0.058 | 1.26 ± 0.037 | 1.28 ± 0.13 | 1.59 ± 0.077
DNSATSYYELETIIFDS [RRI1] | 3.19 ± 0.076 | 3.17 ± 0.055 | 3.11 ± 0.042 | 3.06 ± 0.041
DLYHFALNYENEAGRKL [SNF2] | 2.94 ± 0.16 | 3.13 ± 0.098 | 3.26 ± 0.083 | 3.76 ± 0.26
RELLVEGYGLRDVMCTD [RPO31] | 2.36 ± 0.063 | 2.57 ± 0.063 | 2.77 ± 0.066 | 2.95 ± 0.056
QQQQDLQQQQQVVTTVA [SNF6] | 1.55 ± 0.097 | 1.87 ± 0.083 | 1.87 ± 0.23 | 1.54 ± 0.092
SPRFNVKIGDIEKWTAN [RPS22A] | 3.06 ± 0.082 | 3.23 ± 0.075 | 2.85 ± 0.065 | 3.34 ± 0.073
SSSTQNVFVILMDKCLP [DIS3] | 1.97 ± 0.085 | 1.96 ± 0.053 | 2.13 ± 0.052 | 1.95 ± 0.043
KRQELEEASQQQQLQQN [MED2] | 2.75 ± 0.056 | 2.65 ± 0.083 | 2.48 ± 0.059 | 2.63 ± 0.061
IGKMYDEYLGSHTDQPA [NNF1] | 3.37 ± 0.16 | 2.9 ± 0.17 |  | 3.28 ± 0.086
LGAIEQILIFAADTSIV [YJL039C/NUP192] | 1.47 ± 0.09 | 2.02 ± 0.049 | 1.72 ± 0.091 | 2.56 ± 0.099
SLILKESGSTPISISNA [YAR002W/NUP60] | 1.2 ± 0.085 | 1.62 ± 0.1 | 1.45 ± 0.11 | 1.23 ± 0.1
SQLNIQLSQDEHSQVEQ [SRP72] | 3.17 ± 0.06 | 3.07 ± 0.047 | 3.16 ± 0.048 | 3.05 ± 0.066
DSNGDFNEDQLFSLLEL [RRP46] | 2.83 ± 0.16 | 2.82 ± 0.16 | 3.31 ± 0.069 | 2.98 ± 0.1
SLTAEAMTAAEHGLHAP [CYT1] | 2.82 ± 0.091 | 3.25 ± 0.073 | 2.94 ± 0.057 | 3.1 ± 0.045
VTGASQFQRLAPSLTVP [PRE2] | 2.01 ± 0.096 | 1.25 ± 0.095 | 1.36 ± 0.2 | 1.67 ± 0.089
DSPASNEDDLTVKLTEI [RPO31] | 2.94 ± 0.071 | 3.15 ± 0.068 | 2.97 ± 0.053 | 3.19 ± 0.056
AEEFDFNVPVVSKQLGN [YAR002W/NUP60] | 2.47 ± 0.18 | 1.35 ± 0.17 | 1.28 ± 0.14 | 1.14 ± 0.11
FTIDAKPPISDSVFSFG [YLR335W/NUP2] | 3.13 ± 0.054 | 2.75 ± 0.047 | 2.73 ± 0.051 | 2.69 ± 0.042
TEYRGTLVSTDNYFNLQ [SMX3] | 1.83 ± 0.038 | 2.65 ± 0.046 | 2.4 ± 0.059 | 2.23 ± 0.041
RYLVGGNKIQKVLLDSK [RPS7A] | 1.24 ± 0.084 | 2.01 ± 0.18 | 1.51 ± 0.25 | 1.7 ± 0.17
DGWVKLTYKSELSKSRA [YMR153W/NUP53] | 1.85 ± 0.062 | 1.88 ± 0.04 | 1.95 ± 0.083 | 1.84 ± 0.032
